A short description of this data set: protein stability index of a GFP-peptide fusion (GPS, HEK-293T) (PSI 1-6); higher = more stable.
Setting [1] is: treatment: DMSO, c terminus: a fixed tail appended.
[2] abbreviates: treatment: MLN4924 1 uM, 8 h, c terminus: a fixed tail appended.

± gives the standard deviation.
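Note: 24-mer peptide tiles fused after GFP, lentivirally expressed, FACS-sorted into six equal bins by GFP/DsRed ratio, decoded by Illumina sequencing, PSI is the read-weighted mean bin number.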

On to AAALDYEADGSTNNGIFQINSRRW [SPACA3], for which the protein stability index by setting is: under setting [1], 3.64 ± 0.46; under setting [2], 3.76 ± 0.35.

CHSFAAAADGPTVCCNPYHFSRLC [SMAD6]: the protein stability index under setting [1] was determined as 2.4 ± 0.35 and the protein stability index under setting [2] was 2.22 ± 0.2.

For AWLPQAKVPFSQEIKDLILPKISD [PI4K2A], the protein stability index came to 2.72 ± 0.059 under setting [1] and 2.78 ± 0.18 under setting [2].

Take KRFQTLISKMEPLEIPVETITSEV [CRY1]: the protein stability index reads like this: under setting [1], 3.27 ± 0.25; under setting [2], 3.5 ± 0.39.

For the sequence IVKQMKIIHEAGYSEEECKQYKAV [GNAI1], the protein stability index is, setting by setting: under setting [1], 3.13 ± 0.22; under setting [2], 3.77 ± 0.23.

As for VRRRYSDFEWLRSELERESKVVVP [SNX3], the protein stability index reads like this: under setting [1], 2.17 ± 0.12; under setting [2], 2.33 ± 0.17.

For the sequence LAGQFLEELRKFSSLCYKQRIKSQ [MOG], the protein stability index stood at 2.17 ± 0.27 under setting [1] and 2.14 ± 0.38 under setting [2].

As for KTIDLGAAAHYTGDKASPDQNAST [CLINT1], the protein stability index amounted to 5.26 ± 0.31 under setting [1] and 5.41 ± 0.49 under setting [2].

Regarding GGFMGYSAENIPGCSSSGSCSQGS [CRY1], the protein stability index by setting is: under setting [1], 4.14 ± 0.3; under setting [2], 4.4 ± 0.28.

For the sequence RHKQPTLLMVRASRRSGKTSAVLK [C6orf223], the protein stability index is, setting by setting: under setting [1], 3.29 ± 0.26; under setting [2], 3.45 ± 0.24.

Consider NLPFWVKEKANSLKNEIQEVEELD [SPATS1], for which the protein stability index was 4.7 ± 0.32 under setting [1] and 4.82 ± 0.083 under setting [2].

For the sequence WWTNWVIPAISAVAVALMYRLYMA [CYB5A], the protein stability index came out at 3.22 ± 0.15 under setting [1] and 3.29 ± 0.36 under setting [2].

As for GLSGSGVAFVCAFSEALAEGAVKM [PYCR3], the protein stability index runs as follows: under setting [1], 2.58 ± 0.65; under setting [2], 2.25 ± 0.34.

As to CCRACSVSFSTGAGGWSNHHFCVI [BET1L], the protein stability index under setting [1] came out at 2.42 ± 0.26 and the protein stability index under setting [2] was found to be 2.35 ± 0.33.

On to ELSKDAQASAAPAAPLPERNSLSA [SLC29A1], for which the protein stability index by setting is: under setting [1], 5.15 ± 0.12; under setting [2], 5.05 ± 0.27.

With VCCNPYHFSRLCGPESPPPPYSRL [SMAD6], the protein stability index is, setting by setting: under setting [1], 2.15 ± 0.36; under setting [2], 2.15 ± 0.18.

Turning to TIPASLDLSPLLGFWQLPPPATQN [PLAGL1], the protein stability index under setting [1] amounted to 2.74 ± 0.15 and the protein stability index under setting [2] came to 2.96 ± 0.32.

Consider TSAKVNWMPPPSRADSFKVSYQLA [TNXB], for which the protein stability index runs as follows: under setting [1], 2.5 ± 0.32; under setting [2], 2.69 ± 0.26.

Turning to YFFPVIFSKASSSLQLVFGIELME [MAGEA3], the protein stability index was 3.44 ± 0.27 under setting [1] and 2.96 ± 0.25 under setting [2].

EDQPINLCDKLPPATALGTASYPS [NOL4L]: the protein stability index runs as follows: under setting [1], 4.6 ± 0.19; under setting [2], 4.62 ± 0.084.

For SSSSILRWLPEKRANPCLSSSNEH [ELOA2], the protein stability index was determined as 3.4 ± 0.19 under setting [1] and 3.54 ± 0.25 under setting [2].

Take QARKALFEKWEQETAAGKGKGEAR [SMTNL2]: the protein stability index was found to be 4.836 ± 0.03 under setting [1] and 4.84 ± 0.29 under setting [2].

Consider GQTGTRLTPADKAEHMKRQRHPRL [AUP1], for which the protein stability index under setting [1] was 4.32 ± 0.18 and the protein stability index under setting [2] worked out at 4.6 ± 0.075.

On to ESMYGDFQEAMTHLQHKLICTRKP [TENT5D], for which the protein stability index runs as follows: under setting [1], 3.54 ± 0.17; under setting [2], 3.58 ± 0.38.

Turning to ALLKFREDEGFVREEEDRALPENE [KCNA4], the protein stability index by setting is: under setting [1], 5.31 ± 0.32; under setting [2], 5.43 ± 0.19.

For the sequence LGSGPDRELRKPEEPENGEPTAAA [PWWP2B], the protein stability index reads like this: under setting [1], 5.52 ± 0.18; under setting [2], 5.25 ± 0.47.

With VPTPKSHLQLLGAVCMFLASKLKE [CCND2], the protein stability index stood at 2.11 ± 0.28 under setting [1] and 1.92 ± 0.39 under setting [2].

Turning to SLKFFLNKPMLADVVFEIQGTTVP [RHOBTB3], the protein stability index came to 2.68 ± 0.39 under setting [1] and 2.29 ± 0.37 under setting [2].

NSSNSDIVHVEKEEVPEGMEEAAV [BCL2L13]: the protein stability index runs as follows: under setting [1], 5.6 ± 0.14; under setting [2], 5.61 ± 0.28.

Take GSDKQQQQQHIECVVCGDKSSGKH [NR2F2]: the protein stability index runs as follows: under setting [1], 4.93 ± 0.35; under setting [2], 5.07 ± 0.18.

YSFISLFIYMVLSLFIALITGAYD [MCOLN1]: the protein stability index was 3.14 ± 0.48 under setting [1] and 3.22 ± 0.45 under setting [2].

As to HHRVQENQMDKARRHPQGAWKELD [CHGB], the protein stability index under setting [1] was determined as 4.45 ± 0.11 and the protein stability index under setting [2] amounted to 4.4 ± 0.11.

Take SLVSLVLYNMDLSDDHIRVIVQLH [ZER1]: the protein stability index runs as follows: under setting [1], 2.63 ± 0.41; under setting [2], 2.71 ± 0.54.

For CSSKRSSIPLMGFEFEVRVCDSCH [WDFY2], the protein stability index came out at 2.24 ± 0.39 under setting [1] and 2.15 ± 0.34 under setting [2].

As for MSAALFSLDGPARGAPWPAEPAPF [CEBPD], the protein stability index under setting [1] was found to be 2.95 ± 0.14 and the protein stability index under setting [2] stood at 3.21 ± 0.18.

FCGAPPVTPIIVLSIINFFERLCL [PHTF1]: the protein stability index reads like this: under setting [1], 2.87 ± 0.47; under setting [2], 2.5 ± 0.46.

Regarding AALAAMNGRKIMGKEVKVNWATTP [TIA1], the protein stability index by setting is: under setting [1], 2.25 ± 0.32; under setting [2], 2.3 ± 0.28.

Consider NALLSKRLLALTSSDLGCQPSRT [TMEM192], for which the protein stability index reads like this: (treatment: DMSO, c terminus: native) 2.52 ± 0.72; (treatment: MLN4924 1 uM, 8 h, c terminus: native) 2.61 ± 0.3.

With QENAIQTMELRNYFSLYCLHQETQ [SNX8], the protein stability index reads like this: under setting [1], 2.58 ± 0.31; under setting [2], 2.52 ± 0.4.

As to TFALYKNGSSEKREVRQFQFTAWP [PTPRD], the protein stability index was 2.29 ± 0.22 under setting [1] and 2.46 ± 0.18 under setting [2].

LHSLPGVSLSLENRELWKEFSSVG [TBX6]: the protein stability index runs as follows: under setting [1], 2.73 ± 0.19; under setting [2], 2.83 ± 0.37.

Turning to VSLRYSGATAASETLSGHGPLAQP [ADAMTS4], the protein stability index was 3.08 ± 0.15 under setting [1] and 3.21 ± 0.066 under setting [2].

HIIRIGDLKPTGEIPKQVKVKKLK [DENND6A] had a protein stability index under setting [1] of 2.73 ± 0.2 and a protein stability index under setting [2] of 3.12 ± 0.19.

Under setting [1], IQRPANAIKEMIENCLDAKSTSIQ [MLH1] yielded a protein stability index of 4.16 ± 0.16.

PWEPPVLPILTWPVLQSRTGLVYD [HDAC6]: the protein stability index under setting [1] amounted to 3.46 ± 0.51 and the protein stability index under setting [2] came out at 3.35 ± 0.23.

Regarding NMEKYNFLGISIVGQSNERGDGGI [DVL3], the protein stability index runs as follows: under setting [1], 3.18 ± 0.28; under setting [2], 3.16 ± 0.82.

On to LASGLVVFFLFPHSVLVDDDGIKV [TMEM106C], for which the protein stability index was 2.92 ± 0.48 under setting [1] and 2.86 ± 0.49 under setting [2].

For the sequence IVITGDADIDHDQALAQAIKEAKE [EPB41L3], the protein stability index was determined as 2.85 ± 0.58 under setting [1] and 3.45 ± 0.48 under setting [2].

Regarding TPEELTILGETQEEEDEILPRKDY [CLCN6], the protein stability index runs as follows: under setting [1], 5.51 ± 0.13; under setting [2], 5.54 ± 0.21.

LFDLMRRMLEFDPAQRITLAEALL [CLK3] displayed a protein stability index under setting [1] of 2.05 ± 0.6 and a protein stability index under setting [2] of 2.19 ± 0.11.

Sequence GDKNEEQVLNAIEAYTEHRPEITS [ZER1] yielded a protein stability index under setting [1] of 5.33 ± 0.2 and a protein stability index under setting [2] of 5.16 ± 0.22.

In the case of PVPVIVSNFNYFYHRETEGEEQAQ [KCNA1], the protein stability index under setting [1] turned out to be 3.62 ± 0.25 and the protein stability index under setting [2] amounted to 3.81 ± 0.4.

NILFYVVGLRNTLTRIRKWIEHSK [GLT8D2] returned a protein stability index under setting [1] of 2.59 ± 0.18 and a protein stability index under setting [2] of 2.76 ± 0.46.

Consider TVFDANDNAPVFTLPEYRVSVPEN [PCDHGA10], for which the protein stability index is, setting by setting: under setting [1], 3.53 ± 0.11; under setting [2], 3.86 ± 0.16.

Turning to PGVLKVLWLTASQPCSIVDVEFLP [LPCAT4], the protein stability index came to 3.08 ± 0.27 under setting [1] and 2.87 ± 0.99 under setting [2].

As for ATDPFVAFHINKGLVKKYMNSLLI [FADS1], the protein stability index reads like this: under setting [1], 2.46 ± 0.59; under setting [2], 2.64 ± 0.43.

As for VHPTKHEVHFLHEESILERVQQHI [MLH1], the protein stability index was determined as 3.18 ± 0.16 under setting [1] and 3.28 ± 0.15 under setting [2].

As to IYTEFPDETLRSGELLNMIVAVID [INTS3], the protein stability index under setting [1] was found to be 2.14 ± 0.29 and the protein stability index under setting [2] is 2.47 ± 0.099.

Consider SLISGCPNIQEAVEGAMHIQECVP [CRYL1], for which the protein stability index came out at 3.87 ± 0.29 under setting [1] and 3.98 ± 0.18 under setting [2].

The sequence SDAIRVVNAVLTQIDQIKRHSNVV [TRIP13] returned a protein stability index under setting [1] of 2.33 ± 0.2 and a protein stability index under setting [2] of 2.35 ± 0.21.

As to ILSGHEHAVSTCHFCVDDTKLLSG [WDR88], the protein stability index runs as follows: under setting [1], 2.71 ± 0.35; under setting [2], 2.92 ± 0.35.

As for GCFRSQGASLRLAVEDGLQQFKQY [M1AP], the protein stability index reads like this: under setting [1], 2.88 ± 0.68; under setting [2], 2.78 ± 0.074.

LCQKSNDISIHHFTCDEENVFAAV [WDR41]: the protein stability index is 2.84 ± 0.18 under setting [1] and 2.91 ± 0.31 under setting [2].

In turn, APKDSAPQDLAPQVSAHHRSQESL [TBC1D10A] came in with a protein stability index under setting [1] of 5.36 ± 0.2 and a protein stability index under setting [2] of 5.38 ± 0.14.

As to VVLDRHGVYGLQRNLLVENIIDIY [TRIM55], the protein stability index reads like this: under setting [1], 2.44 ± 0.8; under setting [2], 2.81 ± 0.099.

As for TVASEAKIQLSDSEAKSHSSADDA [FAN1], the protein stability index by setting is: under setting [1], 5.46 ± 0.28; under setting [2], 5.38 ± 0.27.

Regarding QAYAHYLLATFPRRALAPPSAGFR [ANKRD9], the protein stability index was determined as 2.31 ± 0.22 under setting [1] and 2.37 ± 0.23 under setting [2].

On to VDQKLELNIVPRTKVVYLASETFN [PI4K2A], for which the protein stability index reads like this: under setting [1], 2.38 ± 0.23; under setting [2], 2.51 ± 0.25.

Consider PSMVSGGYVANSSNCISGVCSVRG [KRT71], for which the protein stability index reads like this: under setting [1], 3.35 ± 0.082; under setting [2], 3.4 ± 0.23.

DQDTLAPLPHPGAAPWPMAFPYQY [DVL3] came in with a protein stability index under setting [1] of 3.15 ± 0.29 and a protein stability index under setting [2] of 3.12 ± 0.25.

LALCPANHAPLREQGAIPRLVQLL [CTNNB1] gave a protein stability index under setting [1] of 2.39 ± 0.21 and a protein stability index under setting [2] of 2.59 ± 0.21.

Take EDHGLVTCSADHLIILWKNGERES [WDR41]: the protein stability index worked out at 3.27 ± 0.28 under setting [1] and 2.74 ± 0.21 under setting [2].

The values above are taken from the supplement of paper PMC10567573.
